Data on five substances can be found in US20160361443A1, “Ultrasound Molecular Imaging With Targeted Biocompatible Microbubbles” (University of Pittsburgh - Of the Commonwealth System of …, priority 2015, published 2016).

Test [1] addresses T1, human E-selectin (Homo sapiens, UniProt P16581).
T1 sequence (P16581 22-610): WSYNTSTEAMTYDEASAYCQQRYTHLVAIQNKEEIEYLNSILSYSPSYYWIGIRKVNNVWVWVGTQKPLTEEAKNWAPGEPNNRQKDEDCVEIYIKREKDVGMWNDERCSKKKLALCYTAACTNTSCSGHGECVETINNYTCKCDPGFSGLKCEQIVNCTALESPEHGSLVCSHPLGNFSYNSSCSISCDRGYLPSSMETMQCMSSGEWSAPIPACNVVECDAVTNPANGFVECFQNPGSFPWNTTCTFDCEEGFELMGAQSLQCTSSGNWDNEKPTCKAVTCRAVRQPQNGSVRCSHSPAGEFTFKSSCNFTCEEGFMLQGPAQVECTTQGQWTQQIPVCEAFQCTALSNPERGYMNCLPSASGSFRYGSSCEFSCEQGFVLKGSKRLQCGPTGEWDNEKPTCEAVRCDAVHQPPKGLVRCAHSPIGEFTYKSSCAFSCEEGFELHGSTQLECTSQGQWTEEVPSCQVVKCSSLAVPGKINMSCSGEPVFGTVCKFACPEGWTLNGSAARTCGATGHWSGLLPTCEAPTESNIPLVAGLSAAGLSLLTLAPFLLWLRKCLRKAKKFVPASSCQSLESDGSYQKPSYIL
As to conditions: cited from earlier work.

The target of test [2] is T1, human E-selectin. The note with it: static and flow-cell assays; cited from earlier work.
In test [3] the target is rat E-selectin on inflamed (IL-1β-activated) rat heart microvascular endothelial cells / inflamed or post-ischemic rat endothelium (rat) (UniProt P98105). Nature of the test: cell-based or functional assay.
The target is the same in test [4]. The test is described as follows: parallel plate flow system, normal cultured rat ECs; control microbubble.
For test [5] the target is unchanged. The test is described as follows: parallel plate flow system, activated cultured rat ECs; control microbubble.
Test [6] shares this target. The test is described as follows: parallel plate perfusion chamber, inflamed rat heart microvascular ECs; control microbubble.
Test [7] relates to E-selectin. The test is described as follows: TNF-α induced E-selectin upregulation in HUVEC cells (immunostaining, electrophoresis gel). The note with it: TNFα 20 ng/mL for 4 hr vs without TNFα. The format is cell-based, human. The text has this: FIG. 24 presents exempary data of TNF-α induced E-selectin upregulation by immunostaining of HUVEC cells.
The test system of test [8] is E-selectin. Nature of the test: RT-qPCR of heart after LPS injection, E-selectin mRNA. The format is in vivo, rat. The note with it: 4 hours post LPS injection. How it is done:
(§1) Wistar Rats were intraperitoneally injected with lipopolysaccharide (LPS) in normal saline (dose: 1 mg/kg) to induce systemic inflammation. Four hours post-injection, rats were anesthetized and intubated.
(§2) LPS treated and untreated (i.e., baseline) hearts were harvested. RNA extraction and reverse transcriptase real-time quantitative polymerase chain reaction (RT-qPCR) for E-selectin, ICAM and glyceraldehyde 3-phosphate dehydrogenase (GAPDH, a house keeping gene) in the heart were performed. E-selectin and ICAM mRNA expression level were expressed as percent of GAPDH.

Another test has as its system ICAM. The test is described as follows: RT-qPCR of heart after LPS injection, ICAM mRNA. As to conditions: 4 hours post LPS injection. The format is in vivo, rat. How it is done:
as §1, §2

Test [9] deals with T2, E-selectin (Rattus norvegicus, UniProt P98105).
T2 construct: Immunofluorescent staining in all rats consistently confirmed microvascular E-selectin and ICAM-1 expression in postischemic myocardium; from tissue
T2 sequence (P98105 22-549): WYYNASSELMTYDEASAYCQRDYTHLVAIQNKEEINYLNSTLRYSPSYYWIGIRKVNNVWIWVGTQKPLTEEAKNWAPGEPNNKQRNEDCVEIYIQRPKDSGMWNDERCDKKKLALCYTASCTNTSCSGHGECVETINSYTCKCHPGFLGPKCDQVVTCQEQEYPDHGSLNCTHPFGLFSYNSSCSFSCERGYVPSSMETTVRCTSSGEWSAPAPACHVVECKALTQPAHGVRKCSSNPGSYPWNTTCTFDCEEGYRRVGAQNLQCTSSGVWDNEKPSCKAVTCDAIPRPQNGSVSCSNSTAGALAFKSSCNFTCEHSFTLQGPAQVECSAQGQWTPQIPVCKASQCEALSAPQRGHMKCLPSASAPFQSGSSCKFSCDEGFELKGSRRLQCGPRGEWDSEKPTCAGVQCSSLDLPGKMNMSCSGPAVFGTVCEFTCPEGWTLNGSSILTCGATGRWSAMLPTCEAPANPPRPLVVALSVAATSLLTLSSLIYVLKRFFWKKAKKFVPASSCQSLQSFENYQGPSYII
The test is described as follows: Ultrasound molecular imaging with targeted MB (Mal) in LPS rat inflammation model. The format is in vivo. As to conditions: 2×10^7 MB. How it is done:
FIG. 26 presents exemplary data comparing myocardial retention of microbubble populations (2×10^7) either with, or without, a targeting ligand in an LPS rat inflammation model. The data were linearized and a two-phase washout model was fitted to obtain the retained MB concentration in the myocardium.
as §1
Each rat received intravenous injection of targeted MB Esel(MAL) and control MB IgG in random order (2×10^7 MB in 200 μL saline followed by a 200 μL saline flush). Baseline contrast ultrasound images were obtained before each microbubble injection and intermittent contrast ultrasound imaging were performed for 20 min to monitor the adhesion dynamics of MB in the myocardium. Acuson Sequoia 512 clinical ultrasound system (Siemens, Mountain View, Calif.) with a 15 L8 linear array transducer was used for imaging in CPS mode at 7 MHz.
Microbubble (MB) signals in the anterior myocardium and in the left ventricular cavity were also analyzed. […] Signal intensity was linearized and a two-phase washout model
was used to calculate the amount of MB retention in the myocardium.

Where no end group is shown, it is not given here.

Turning to “H2NDITWDQLWDLMK-COOH (H-DITWDQLWDLMK-OH) [AF10166]”, the Kd value entry in the test with human E-selectin [1] (believed, from phage display library screening) is recorded as “low nanomolar range”. Moreover, the IC50 with human E-selectin [1] was 4.4 nM. The Neutrophil adhesion result with human E-selectin [2] is listed as “blocks neutrophil adhesion”.
For “MBIgG: polymer/albumin double-shell microbubble bearing rat biotinylated immunoglobulin G (non-specific IgG, BD Biosciences) via biotin-streptavidin bridging (antibody)”, in test [3], the adherent microbubbles per field, intravital microscopy of TNF-α-inflamed rat cremaster microcirculation (control microbubble) stood at 1.1 MBs/field; the background-subtracted videointensity, postischemic LAD bed (control microbubble) stood at 1.7 dB; the myocardial videointensity, post-ischemic bed (control microbubble) was 2 dB. In [4], this substance yielded an adherent microbubbles per endothelial cell (MB/EC) of 2 MB/EC. Besides, in test [5], the adherent microbubbles per endothelial cell (MB/EC) is 2 MB/EC. The same substance showed an adherent microbubbles per endothelial cell (MB/EC) in test [6] of 2.3 MB/EC.
Take TNFα: the “E-selectin expression (in words)” value in the test with E-selectin [7] is given as “significant upregulation”.
lipopolysaccharide [LPS]: the “Esel mRNA expression” value in the test on E-selectin [8] was 2.28±1.32 % of GAPDH. For the same substance, the “ICAM mRNA expression” value in the test with ICAM is reported as 6.09±3.14 % of GAPDH.
For the substance “targeted MB: Polymer microbubble conjugated to E-selectin targeting peptide by thioether bond (maleimide-thiol chemistry) (CDITWDQLWDLMK; not fully specified (residue 1); also: N-terminal Cys thioether to maleimide linker BM(PEG)3 on microbubble shell)”, the “Myocardial MB concentration, more as compared with control IgG MB injection” value with E-selectin [9] (6 minutes post-injection, 4 h post LPS 1 mg/kg) is given as 185%. In addition, the “Retained MB in the myocardium (Ar term) as compared with control MB injection” value with E-selectin [9] (two-phase washout model fit, 4 h post LPS) is 330%.
